# “Also recorded” adds a separate entry of the source. Where no end group is shown, it is not given here. [ ]: non-standard residue; d: D form.
# Columns and labels:
# CaV2.2 channel = CaV2.2 channel (Homo sapiens, UniProt Q00975); type: cell-based
# CaV1.2 channel = biological target: T1, CaV1.2 channel (Oryctolagus cuniculus, UniProt P15381); assay: whole cell patch clamp of CaV1.2-mediated ion currents in tsA201 cells co-expressing CaV1.2 and CaVbeta2e; type: cell-based, rabbit; conditions: 150 nM peptide
# T1 construct: The coding regions of the two different alpha1 pore-forming units (CaValpha1) of the voltage-dependent calcium channel were fused in frame; expressed in transfected cells; host or cells: tsA201 cells, transient co-transfection
# T1 sequence (P15381 whole entry, the tested form may be a part): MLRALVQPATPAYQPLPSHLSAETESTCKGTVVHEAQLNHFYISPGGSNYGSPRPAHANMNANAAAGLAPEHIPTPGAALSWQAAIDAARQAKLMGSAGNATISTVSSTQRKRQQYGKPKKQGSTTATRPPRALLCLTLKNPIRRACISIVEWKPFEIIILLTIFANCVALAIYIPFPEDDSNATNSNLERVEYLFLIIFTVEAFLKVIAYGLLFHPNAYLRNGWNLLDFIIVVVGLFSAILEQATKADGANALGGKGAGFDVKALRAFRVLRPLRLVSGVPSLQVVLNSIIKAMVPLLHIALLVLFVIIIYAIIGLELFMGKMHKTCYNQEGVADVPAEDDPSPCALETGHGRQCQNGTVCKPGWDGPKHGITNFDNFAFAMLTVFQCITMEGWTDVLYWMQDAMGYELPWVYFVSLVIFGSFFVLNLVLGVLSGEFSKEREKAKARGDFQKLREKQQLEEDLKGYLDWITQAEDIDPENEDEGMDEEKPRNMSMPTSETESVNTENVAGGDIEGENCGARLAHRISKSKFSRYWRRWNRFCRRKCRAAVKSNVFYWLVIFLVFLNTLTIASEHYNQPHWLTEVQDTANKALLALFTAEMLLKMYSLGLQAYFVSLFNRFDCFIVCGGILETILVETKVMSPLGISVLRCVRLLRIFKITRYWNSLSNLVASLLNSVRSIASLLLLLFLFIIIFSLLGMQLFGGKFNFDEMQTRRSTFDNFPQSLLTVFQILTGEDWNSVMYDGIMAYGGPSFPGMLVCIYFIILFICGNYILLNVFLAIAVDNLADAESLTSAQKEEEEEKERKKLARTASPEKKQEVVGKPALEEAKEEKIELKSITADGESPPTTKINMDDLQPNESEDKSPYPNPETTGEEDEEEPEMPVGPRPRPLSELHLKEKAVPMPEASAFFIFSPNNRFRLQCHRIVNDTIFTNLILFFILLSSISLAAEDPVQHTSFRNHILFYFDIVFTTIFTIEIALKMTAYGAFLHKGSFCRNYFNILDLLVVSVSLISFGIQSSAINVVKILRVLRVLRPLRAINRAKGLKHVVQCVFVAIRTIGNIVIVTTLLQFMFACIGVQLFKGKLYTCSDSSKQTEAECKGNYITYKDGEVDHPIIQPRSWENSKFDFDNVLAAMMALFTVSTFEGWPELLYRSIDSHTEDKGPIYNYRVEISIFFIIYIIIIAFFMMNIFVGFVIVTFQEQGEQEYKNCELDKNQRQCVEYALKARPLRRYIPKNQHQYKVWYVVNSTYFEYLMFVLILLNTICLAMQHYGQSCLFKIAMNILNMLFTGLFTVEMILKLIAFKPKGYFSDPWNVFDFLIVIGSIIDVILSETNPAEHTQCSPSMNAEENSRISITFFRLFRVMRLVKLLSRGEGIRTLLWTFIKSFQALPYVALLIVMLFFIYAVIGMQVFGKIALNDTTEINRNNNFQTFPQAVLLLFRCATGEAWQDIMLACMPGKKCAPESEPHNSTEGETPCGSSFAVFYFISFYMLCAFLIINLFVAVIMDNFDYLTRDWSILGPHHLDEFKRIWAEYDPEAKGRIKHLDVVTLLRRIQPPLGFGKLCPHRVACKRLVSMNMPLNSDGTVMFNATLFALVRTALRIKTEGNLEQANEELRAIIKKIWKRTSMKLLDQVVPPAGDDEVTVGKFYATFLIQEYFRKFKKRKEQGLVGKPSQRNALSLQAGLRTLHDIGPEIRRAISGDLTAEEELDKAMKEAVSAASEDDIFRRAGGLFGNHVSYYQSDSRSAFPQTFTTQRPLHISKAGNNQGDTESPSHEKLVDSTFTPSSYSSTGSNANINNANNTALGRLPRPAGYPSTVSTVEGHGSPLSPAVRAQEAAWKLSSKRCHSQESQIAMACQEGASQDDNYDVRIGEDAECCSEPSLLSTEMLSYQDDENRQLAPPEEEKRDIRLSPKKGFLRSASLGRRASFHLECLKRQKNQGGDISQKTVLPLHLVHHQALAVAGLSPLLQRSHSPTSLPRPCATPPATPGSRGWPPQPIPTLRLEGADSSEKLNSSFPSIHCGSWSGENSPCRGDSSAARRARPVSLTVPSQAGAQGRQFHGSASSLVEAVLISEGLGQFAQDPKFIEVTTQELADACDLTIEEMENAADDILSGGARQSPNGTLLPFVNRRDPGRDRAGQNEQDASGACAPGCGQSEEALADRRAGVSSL
# T1 sequence (Q8VGC3 1-611 isoform Q8VGC3-4 partner): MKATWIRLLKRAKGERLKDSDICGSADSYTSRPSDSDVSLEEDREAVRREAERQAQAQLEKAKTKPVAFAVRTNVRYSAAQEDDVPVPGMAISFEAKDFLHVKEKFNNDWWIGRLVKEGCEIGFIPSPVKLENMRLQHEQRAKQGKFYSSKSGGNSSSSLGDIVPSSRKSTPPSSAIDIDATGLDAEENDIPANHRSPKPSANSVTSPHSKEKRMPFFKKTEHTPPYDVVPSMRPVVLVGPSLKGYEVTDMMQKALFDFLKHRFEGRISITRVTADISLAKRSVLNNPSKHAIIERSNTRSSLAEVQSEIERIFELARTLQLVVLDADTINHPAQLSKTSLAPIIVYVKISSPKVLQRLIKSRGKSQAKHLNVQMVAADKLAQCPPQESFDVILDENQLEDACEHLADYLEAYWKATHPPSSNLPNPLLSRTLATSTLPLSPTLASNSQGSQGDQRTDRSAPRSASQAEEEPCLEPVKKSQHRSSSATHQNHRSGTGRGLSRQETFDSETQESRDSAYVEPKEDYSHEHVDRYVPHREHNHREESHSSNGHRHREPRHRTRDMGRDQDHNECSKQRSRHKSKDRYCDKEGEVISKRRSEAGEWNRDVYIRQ
# Sequence of CaV2.2 channel (Q00975 whole entry, looked up): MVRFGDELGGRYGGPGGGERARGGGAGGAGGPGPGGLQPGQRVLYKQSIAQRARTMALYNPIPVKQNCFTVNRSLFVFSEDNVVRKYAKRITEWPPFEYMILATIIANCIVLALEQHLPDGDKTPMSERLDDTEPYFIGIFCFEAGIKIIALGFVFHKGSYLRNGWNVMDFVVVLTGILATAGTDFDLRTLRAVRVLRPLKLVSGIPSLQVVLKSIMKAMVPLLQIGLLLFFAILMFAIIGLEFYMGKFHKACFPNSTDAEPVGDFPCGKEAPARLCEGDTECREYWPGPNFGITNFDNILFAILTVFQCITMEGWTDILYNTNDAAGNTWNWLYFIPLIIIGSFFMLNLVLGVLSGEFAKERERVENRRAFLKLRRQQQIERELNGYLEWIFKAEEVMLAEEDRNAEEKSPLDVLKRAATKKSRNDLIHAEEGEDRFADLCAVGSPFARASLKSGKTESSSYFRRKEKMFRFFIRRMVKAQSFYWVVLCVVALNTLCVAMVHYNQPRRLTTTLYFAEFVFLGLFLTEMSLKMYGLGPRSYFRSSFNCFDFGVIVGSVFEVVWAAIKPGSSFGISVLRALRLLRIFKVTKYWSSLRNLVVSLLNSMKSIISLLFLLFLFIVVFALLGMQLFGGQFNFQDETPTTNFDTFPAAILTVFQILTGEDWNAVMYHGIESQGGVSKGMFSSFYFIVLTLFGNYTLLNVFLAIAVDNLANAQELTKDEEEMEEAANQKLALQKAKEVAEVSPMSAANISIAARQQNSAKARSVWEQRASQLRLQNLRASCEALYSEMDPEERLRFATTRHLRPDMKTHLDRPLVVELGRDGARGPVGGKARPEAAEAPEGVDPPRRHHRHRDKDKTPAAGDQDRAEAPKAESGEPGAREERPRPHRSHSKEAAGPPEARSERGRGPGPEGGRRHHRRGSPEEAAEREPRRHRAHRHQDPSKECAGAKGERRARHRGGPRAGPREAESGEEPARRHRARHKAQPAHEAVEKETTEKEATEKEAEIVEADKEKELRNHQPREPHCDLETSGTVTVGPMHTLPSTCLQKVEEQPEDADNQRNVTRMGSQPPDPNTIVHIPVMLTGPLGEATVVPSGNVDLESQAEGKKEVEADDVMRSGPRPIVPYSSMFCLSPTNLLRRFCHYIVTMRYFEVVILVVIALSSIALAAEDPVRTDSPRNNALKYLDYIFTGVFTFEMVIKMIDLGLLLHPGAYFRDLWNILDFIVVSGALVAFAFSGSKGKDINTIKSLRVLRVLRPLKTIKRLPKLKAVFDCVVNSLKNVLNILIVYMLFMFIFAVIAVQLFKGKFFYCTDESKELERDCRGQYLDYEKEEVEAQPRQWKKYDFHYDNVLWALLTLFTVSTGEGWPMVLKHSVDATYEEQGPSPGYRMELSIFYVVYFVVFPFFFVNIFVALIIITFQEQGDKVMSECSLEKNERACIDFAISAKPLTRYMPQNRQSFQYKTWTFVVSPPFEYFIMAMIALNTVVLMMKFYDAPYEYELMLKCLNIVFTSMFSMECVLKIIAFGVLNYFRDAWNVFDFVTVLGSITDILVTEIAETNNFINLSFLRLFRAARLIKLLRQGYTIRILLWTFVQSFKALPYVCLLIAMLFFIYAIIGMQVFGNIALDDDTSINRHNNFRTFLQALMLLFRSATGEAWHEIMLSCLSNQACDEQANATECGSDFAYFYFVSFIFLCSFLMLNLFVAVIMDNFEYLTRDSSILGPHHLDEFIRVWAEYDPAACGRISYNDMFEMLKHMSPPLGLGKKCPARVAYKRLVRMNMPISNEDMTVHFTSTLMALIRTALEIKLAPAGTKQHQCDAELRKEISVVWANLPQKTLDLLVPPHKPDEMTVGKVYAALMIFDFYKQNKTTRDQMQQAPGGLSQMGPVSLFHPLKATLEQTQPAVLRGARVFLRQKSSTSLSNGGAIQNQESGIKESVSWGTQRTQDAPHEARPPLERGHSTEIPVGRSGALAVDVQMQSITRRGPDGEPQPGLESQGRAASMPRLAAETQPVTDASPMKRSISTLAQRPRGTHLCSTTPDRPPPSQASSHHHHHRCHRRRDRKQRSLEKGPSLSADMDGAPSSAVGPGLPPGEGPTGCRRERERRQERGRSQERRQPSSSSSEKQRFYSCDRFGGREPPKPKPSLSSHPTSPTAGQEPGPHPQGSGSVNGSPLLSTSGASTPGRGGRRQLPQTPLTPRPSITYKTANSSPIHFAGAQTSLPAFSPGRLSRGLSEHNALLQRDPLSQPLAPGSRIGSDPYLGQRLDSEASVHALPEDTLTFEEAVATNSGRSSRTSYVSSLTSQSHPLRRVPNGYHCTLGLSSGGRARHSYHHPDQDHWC
Substance,effect on CaV2.2-mediated ion currents (control blocker) (CaV2.2 channel),change in voltage-dependent activation of the CaV2.2 channel (activation curve) (CaV2.2 channel),effect on CaV2.2-mediated ion current (CaV2.2 channel),reduction in the ion current at all tested voltages (current-to-voltage plot) (CaV2.2 channel),voltage dependency of activation of the CaV1.2 channel (CaV1.2 channel),effect on CaV1.2-mediated ion current (CaV1.2 channel; pulses -90 mV to +10 mV),reversibility of inhibition of CaV2.2 current (CaV2.2 channel)
omega-conotoxin [reference compound],interrupted,,,,,,
ptlhthnrrrrr ([dP][dT][dL][dH][dT][dH][dN][dR][dR][dR][dR][dR]) [RD2],,not accompanied by a change in voltage-dependent activation of the channel,significant reduction in the ion current; also recorded: blocks the CaV2.2 channel,up to 55%,not affected,remained virtually unchanged; also recorded: insensitive,
rprtrlhthrnr ([dR][dP][dR][dT][dR][dL][dH][dT][dH][dR][dN][dR]) [D3],,not accompanied by a change in voltage-dependent activation of the channel,significant reduction in the ion current; also recorded: blocks the CaV2.2 channel,up to 54%,,,reversible
